Experimental data taken from ChEMBL document CHEMBL1154868 (J Nat Prod, 2010).

Assays:
physchem = settings: octanol/water
Description: Lipophilicity, log P of the compound

[1] = substrate: COCc1c(CO)cnc(C)c1O; settings: Homo sapiens
Description: (§1) Activity at human PKH kinase expressed in Escherichia coli by affinity chromatography

[2] = substrate: Cc1ncc(CO)c(C=O)c1O; settings: Homo sapiens
Description: as §1

[3] = substrate: Cc1ncc(CO)c(CN)c1O; settings: Homo sapiens
Description: as §1

[4] = substrate: Cc1ncc(CO)c(CO)c1O; settings: Homo sapiens
Description: as §1

`Cc1ncc(CO)c(C=O)c1O` [PYRIDOXAL] showed a logP (physchem) of -1.18.

B1: Pyridoxal kinase (Homo sapiens), O00764 (protein)
chain: MEEECRVLSIQSHVIRGYVGNRAATFPLQVLGFEIDAVNSVQFSNHTGYAHWKGQVLNSDELQELYEGLRLNNMNKYDYVLTGYTRDKSFLAMVVDIVQELKQQNPRLVYVCDPVLGDKWDGEGSMYVPEDLLPVYKEKVVPLADIITPNQFEAELLSGRKIHSQEEALRVMDMLHSMGPDTVVITSSDLPSPQGSNYLIVLGSQRRRNPAGSVVMERIRMDIRKVDAVFVGTGDLFAAMLLAWTHKHPNNLKVACEKTVSTLHHVLQRTIQCAKAQAGEGVRPSPMQLELRMVQSKRDIEDPEIVVQATVL
B1 gave a Km [1] of 5 µM, a Km [2] of 59 µM and a Km [3] of 130 µM. The Km [4] was 9.9 µM.
